Measured values: the nanobody polyreactivity screen of Harvey et al. (2022)

Assay: yeast display, Sf9 membrane polyspecificity reagent, FACS + sequencing; frameworks hold sequencing errors
Summary of the method: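 Using colony PCR, genes from sorted yeast display clones were amplified, then sequenced on MiSeq at 2 × 250 and filtered by CDR length. The clones had been stained with 10% biotinylated, detergent-solubilized Sf9 membrane reagent for 1 hour at 4 °C and sorted by FACS into low and high (top ~1%) gates on anti-HA and streptavidin fluorescence. Polyreactivity labels come from the gate of origin.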

| Sequence | polyreactivity (PSR sort gate) |
| --- | --- |
| QVQLVDSGGGLVQAGGSLRLSCAASGSIFGLYAMGWYRQAPGKERELVAAISASGGSTYYADSVKGRFTISRDNAKNTVYLQMNSLKPEDTAVYYCAADLGYPTYDYWGQDTQVTVSS | low polyreactivity |
| QVQLVESGGGLVQAGGILRLSCAASGSIYGYNAMGSYRQAPGKERELVADITSSGSTYYADSVKGRFTISRDNAKNTVYLQMNSLKPEDTAVYYCAARYFVYYLEVDSWGQGTQVTVSS | low polyreactivity |
| QVQLVESGGGLVQAGGSLRLSGAASGRIFATNAMGWYRQAPGKETELVATITRSAGRTYYADSVKGRFTNSRDNAKNTVYLQMNSLKPEETAVYYCAASYWDTEPGYREYDYWGQGTQVTVSS | low polyreactivity |
| QVQLEESGGGLVQAGGSLRLTGAASGSTVVSYAMGWYRQERGKEWELVAAISSSSGRTRYADSVKGSFTISRDNAKNTVYLQMNSLKPEDTAVYYCAARRQSTRPGFYYWGQGTQVTVSS | high polyreactivity |
| QVQLVESGGGLVHAGGSLRLSCAASGFIFPYYAMGWYRQAPGKERELVAAITSGGSTNYADSVKGRFTISRDNAKNTVYLQMNSLKPEDTAVYYCAKRLKRWSVYGRYDYWGQGTQVTVSS | high polyreactivity |
| QVQLVESGGGLVQAGGSLRLSCAASGSTFAGNGMGWYRQAPGKERELVAGIDVTGGSTYYADSVKGRFTISRDNAKNTVYLQMNSLKPEDTAVYYCNARYVYHSSFAGFDYWGQGTQVTVSS | low polyreactivity |
| QVQLVESGGGLVQAGGSLRLSCAASGFTFRRYAMGWYRQAPGKERELVAAISTSGGRTYYADSVKGRFTISRDYAKITVYLQMNSLKPEDSAVYDCNAAGGYRTSPSDYWGQGTQVTVSS | high polyreactivity |
| QVQHVESGGGLVQARGSLRLSCAASGFIIWGYAMGWYRQAPGKERELVAAISSSGGSTYYADSVKGRFTISRDNAKNTVYLQMNSLKPEDTAVYYCAAVRYQAYSGDGGYWGQGTQVTVSS | low polyreactivity |
| QVQLVESGGGLVQEGGSLRLSCAASGSTFYNYAMGLYRQAPGKERELVAAITSSGGSTYYADSVKGRFTISRDYAKNTVYLQMNSLKPEDTAVYYCNADDGYGQVHSISNYEMDYWGQGTQVTVSS | low polyreactivity |
| QDQLVESGGGLVQAGGSLRLSCAASGRTFPYKAMGWYRQAPGKERELVAAISYAGGRTYYADSVKGRFTISRDTAKNTVYLQMNSLKPEDTAVYYCYALGSGREDDYWGQGTQVTVSS | high polyreactivity |
| QVQLVESGGGLLQAGGSLRLSCAASGSTFDTYDMGWYRQAPGKERELVAARNSGGDTNYADSVKGRFTISRDNAKNTVYLQMNSLKPEDTAVYYCAVVTYSYPNWYGYWGPGTQVTVSS | high polyreactivity |
| QVQLVESGGGLVQAGCSLRLSCAASGSIFSSYAMGWYRQAPGKERELVAAITGSGGSTDYADSVKGRFTISRDNAKNTVYLQMNSLKPEDTAVYYCAARPFWPGNSYYYRYYYWGQGTQVTVSS | low polyreactivity |
| QVQLVESGGGLVQAGGSLRLSCAASGSTFVTNAMGWYRQAPGTEREFVAAISWISTSTYYADSVKGRFTISRDNAKNTVYLQMNSLKPEDTAVYYCNATTFAFSPSLKGAYGYWGQGTQVTVSS | low polyreactivity |
| QVQLVESGGGLVQAGGSLRLSCAASGSTFRANAMGWYRQAPGKERELVAAIRWRGVGTYYADSVKGRFTISRDNAKNTVYLQMNSLKPEDTAVYYCAARRLGRSGNGSWGQGTQVTVSS | high polyreactivity |
| QVHLVESGGRLVQAGGSLRLSCAESGFTFGSNVKGAYRQAPGKEREFVDAITSSGRTKYADSVKGRFTISRDNAKNTVYLQMNSLKPEDTAVYYCAARPSQWNYDYRRVYYWVQGTQVTVSS | high polyreactivity |
| QVQLVESGGGLVQAGGSLRLSCAASGSTFNHYAMGWYRQAPGKERELVAAITKSGGSTYADSVKGRFTISRDNAKNTVYLQMNSLKPEDTAVYYCAAGRRKYGTKGRGDYWGQGTQVTVSS | low polyreactivity |
| QVQLVESGGGLVQAGGSLRLSCAASGFTFKYYAMGWYRQAPGKERELVASISYSGGRTSYADSVKGRFTISRDNAKNTVYLQMNSLKPEDTAVYYCNADVRRIDYKSRQYDYWGQGTQVTVSS | high polyreactivity |
| QVQLVESGGGLVQAGGSLRLSCAASGLIFRHYAMGWYRQAPGKERELVAAINWDGTSTDYADSVKGRFTISRDNAKNTVYLQMNSLKPEDTAVYYCAAEGHTAFVVYRVSPLQYDYWGHGTQVTVSS | low polyreactivity |
| QVQLVESGGGFVQAGGSLRLSCAASGSILRSYAMGWYRQAPGKERELVAVINGSGGRTYYADSVKGRFTISRDNAKNTVYLQMNSLKPEDTAVYYCNADPGGRYPRRGYAHEGDYWGQGTQVTVSS | low polyreactivity |
| QVQLVESGGGLVQAGGSLRLSCAASGRILYRYAMGWYRQAPGKERELVAAISRSGGDTYYADSVKGRFTISRDNAKNTVYLQMNSLKPEDTAVYYCAASFEGSGYRYDYWGQGTQVTVSS | low polyreactivity |
| QVQLVDSGGGLVQAGGSLRLSCAASGIIIKLYAMGWYRQAPGKEREFVATITKTGGRTYYADSVKGRFTISRDNAKNTVYLQMNSLKPEDTAVYYCAARRVNGKMYYWGQGTQVTVSS | high polyreactivity |
| QVQLVESGGGLVQAGGSLRLSCAASGRIFRYYAMGWYRQAPGKERELVADSTRGGGSTYYADSVKGRFTISRDNAKNTVYLQMNSLKPEDTAVYYCAKDGSGGLPVLYRYRYDYWGQGTQVTVSS | high polyreactivity |

| Sequence | polyreactivity (PSR sort gate) |
| --- | --- |
| QVQLQESGGVQAGGSLRLSCAASGYISRSDVMGWYRQAPVKERELVATINNGTLTYYADSVKGRFTISRDNAKNTVYLQMNSLKPEDTPVHYCAVLQSDTDSLYYWGQGSQVTVSS | low polyreactivity |
| QVHIVESGGRLFQAGGSLRLSCAASGFTFAYYAMGWYRQAPGKEREMVAAISRGGTSTYYADSVKGRFTISRDNATNPVYLQMNSLKPEDTAVFYCNAVKVGYSLYDFWGQGTQVTVSS | high polyreactivity |
| QVQLVESGGGLVQAGGSLRLSCAASGRIFYPYAMGWYRQPPGKERELVAAIDKGGGSTYYADSVKGRFTISRDNAKNTVYLQMNSLKPEDTAVYYCAAGWEYPYDYWGQGTQVTVSS | low polyreactivity |
| QVQLVESGGGLVQAGGSLRLSCAPSGFTLSTYAMGWYRQAPGKERELVAAISRSTDRTYYADSVKGRFTISRDNAKNTVYLQMNSLKPEDTAVYYCAAKSVYYLYRFYYWGQGSQVTVSS | high polyreactivity |
| QVQLVESGGGLVQAGGSLRLSCAASGRIFAGYVMGWYRQAPGKERELVAAISGSGASTYYADSVKGRFTISRDNAKNTVFLQMNSLKPEDTAVYYCAADKPGIVSRFDYWGQGTQVTVSS | low polyreactivity |
| QLKLEESGGRLVQAGGSLRLSCASSGRTFTYYVMGCYRQAPGKERELVAAISDSGGSTYYADSVKGRFTISRDNAKNTVYLQMNSLKPEDTAVYYCATDSYWYRLREYNYWGQGTQVTVSS | high polyreactivity |
| QVQIVESGGGLVQAGGSLRLSCAASGYTFVENAMGWYRQAPGKERELVAAISNGTITYYADSVKGRFTISRDNAKNTVYLQMNSLKPEDTAVYYCADYEYWGQGTQVTVSS | low polyreactivity |
| QVQLVESGGGLVQAGGSLRLSCAASGFTFVINDMGWYRQAPGTERELVADITSGGDTYYADSVKGRFTISRDNAKNTDYLQLNSLKPEDTAVYYCAADIYPDWIYLLYGYWGQGTQVTVSS | low polyreactivity |
| QVQLVESGGGLVQAGGSLRLSCAASGGTFVSYVMGWYRQAPGKEREWVAAISVSGGRTYYADSVKGRFTISRDNAKNTVYLQMNSLKPEDTAVYYCAADSVVVGSPGNDYWGQGTQVTVSS | high polyreactivity |
| QVQLVESGGGLVQAGGSLRLSCAASGFTFYGYAMGWYRQAPGKERELVAAISSSGGRTYYADSVKGRFTISRDNEKNTVYLQMNSLKPEDTAVYYCAAEYRSYRDGYWGLGTQVTVSS | high polyreactivity |
| QVQLVESGGGLVQAGGSLRLSCAASGRIFGRYAMGWYRQAPGKERELVAAIPRNGGSTYADSVNGRFTISRDNAKNTVYLQMNILKPEDTAVYYCAKKRGGKKSGPHDYWGQGTQVTVSS | high polyreactivity |
| QVQLVESGGCLVQAGGTLRLSCAASGSIFWAYAMGWYRQAPGKERELVAAISRGGTTTYADSVKGRFTISRDNAKNTVYLQMNSLKPEDTAVYYCARRAVYSKRRYDYWGQGTQVTVSS | low polyreactivity |
| QVQLVESGGGLVQAGGSLRLSCAASGFIFRYYAMGWYRQAAGTERELVAAISGGGSSTYYADSVKGRFTISRDNAKNTVYLQMNSLKPEDTAVYYSTARYYYPAIKYDYCGQGTQVTVSS | low polyreactivity |
| QVQLVESGGGLVQAGGSLRLSCAASGSISGLYAMGWYRQAPGKERELVARIRWRGDSTYYADSVKGRFTISRDNAKNTVYLQMNSLNPEDTAVFYCAASAYSGKVNKYNYWGQGTQVTVSS | high polyreactivity |
| QVQLVESVGGLVQAGGSLRLSCAASGRTFVGNTMGWYRQAPGKERELVAAISGSGSRTYYADSVKGRFTISRDNAKNTVYLQMNSLKPEDTGVYYCASQGNYWGQGTQVTVSS | high polyreactivity |
| QVQLVESGGGLVQAGGSLRLSCAASGITFPANAMGWYRQAPGKERELVADISESDGSTYYADSVKGRFTISLDNAKNTVYLQMNSLKPEDTAVYYCNAEWTSFDWGQGTQVTVSS | low polyreactivity |
| QVQLQESGAGLVQAGGRLRLSCASSGTITVLYKMGWFRQAPGKEREFVASINYGTSTYYADSVKGRFTVSRDSATNHEYLQMISLKPEDTAVYYCAAAYRWQDVYRYWGQGSQVTVSS | low polyreactivity |
| QVQLVETGGGLVQAGGSHRLSCAASGSIFGKNVIGRYRQAPGKERELVAAITSGASTYYADSVKGRFTISRDNAKNTVYLQINSLKPEDTAVYYCAARRWRKYYSGYNYWGQGTQVSVSS | high polyreactivity |
| QVQLVESGGGLVQAGGSLRLSCAASGFTFYVNAMGWYRQAPGKERELVAAITYDGDSTYYADSVKGRFTISRDNAKNTVYLQMNSLKPEDTAVYYRNTVYGPDLDGTEYDYWGQGTQVTVSS | low polyreactivity |
| QVQLVESGGGLVQAGGSLRLSCAASGRPFRLNGMGWYRQAPGKERELVAAITWSGGRTYYADSVKGRFTISRDNAKTTVYLQMNSLKPEDTAVYDCAADYRYKSHWWYRRFDYWGQGTQVTVSS | high polyreactivity |
| QVQLVESGGGLVQAGGSLRLSCAASGRTFDVYAMGWYRQPPGKESELVATISYRSARTYSADSVKGRFTISRDNAKNTVYLQMNSLKPEDTAVYYCAARVGARVSQPRRHGRFNYWGQGTQVTVSS | high polyreactivity |
